In article PMC4357719, “Roles of Rad51 paralogs for promoting homologous recombination in Leishmania infantum”:

How the values were obtained:
Test in all cases: competition EMSA; preferred substrate in mixture; 25 mM MOPS pH 7.0, 0.2% Tween-20, 1 mM CaCl2, 2 mM DTT; 25 nM 32P-DNA; 37 C 10 min, then 0.2% glutaraldehyde 15 min; 8% TBE acrylamide gel
Conditions in all cases: protein: recombinant; tags: C-terminal 10xHis; N-terminal GST cleaved with PreScission; label: 32P on strand 3 (JYM1745); D-loop: 1:2 with unpaired bubble, 3 paired to 2 in the bubble
LiRad51-4 = biological target: T1, LiRad51-4 (Leishmania infantum, UniProt A4HUT5 1-518)
T1 sequence: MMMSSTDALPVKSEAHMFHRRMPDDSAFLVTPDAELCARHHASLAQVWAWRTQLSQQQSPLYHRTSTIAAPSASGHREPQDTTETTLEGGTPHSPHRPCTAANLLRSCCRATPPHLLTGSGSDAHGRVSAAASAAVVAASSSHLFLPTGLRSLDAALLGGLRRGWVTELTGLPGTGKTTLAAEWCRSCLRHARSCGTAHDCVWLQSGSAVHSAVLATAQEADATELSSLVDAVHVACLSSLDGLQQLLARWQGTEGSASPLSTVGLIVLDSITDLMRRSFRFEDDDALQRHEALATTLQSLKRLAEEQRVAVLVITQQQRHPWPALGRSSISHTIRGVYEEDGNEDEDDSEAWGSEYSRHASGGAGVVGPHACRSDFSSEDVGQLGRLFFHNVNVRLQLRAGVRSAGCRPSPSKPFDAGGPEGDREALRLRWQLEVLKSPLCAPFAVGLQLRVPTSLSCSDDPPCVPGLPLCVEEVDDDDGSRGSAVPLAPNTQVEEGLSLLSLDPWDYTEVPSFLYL

LiRad51-6 = biological target: T2, LiRad51-6 (Leishmania infantum, UniProt A4I499 1-649)
T2 sequence: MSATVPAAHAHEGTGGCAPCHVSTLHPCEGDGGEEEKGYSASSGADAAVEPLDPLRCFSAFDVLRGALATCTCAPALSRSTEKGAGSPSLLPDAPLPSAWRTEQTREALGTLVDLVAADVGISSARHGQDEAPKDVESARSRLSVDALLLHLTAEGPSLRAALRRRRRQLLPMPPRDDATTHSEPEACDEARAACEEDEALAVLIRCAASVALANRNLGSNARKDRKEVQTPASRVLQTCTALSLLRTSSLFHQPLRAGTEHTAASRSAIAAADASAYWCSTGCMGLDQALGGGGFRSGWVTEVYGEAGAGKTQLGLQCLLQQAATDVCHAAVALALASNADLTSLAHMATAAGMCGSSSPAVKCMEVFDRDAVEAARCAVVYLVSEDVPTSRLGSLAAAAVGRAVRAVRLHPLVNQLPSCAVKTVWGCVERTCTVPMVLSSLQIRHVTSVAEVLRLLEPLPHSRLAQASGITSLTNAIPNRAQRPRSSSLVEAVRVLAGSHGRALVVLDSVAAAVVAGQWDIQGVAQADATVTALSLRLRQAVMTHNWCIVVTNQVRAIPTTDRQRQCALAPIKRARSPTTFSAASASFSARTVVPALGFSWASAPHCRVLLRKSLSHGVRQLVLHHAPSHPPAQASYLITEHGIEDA

LiRad51-3 = biological target: T3, LiRad51-3 (Leishmania infantum, UniProt E9AHR7 1-687)
T3 sequence: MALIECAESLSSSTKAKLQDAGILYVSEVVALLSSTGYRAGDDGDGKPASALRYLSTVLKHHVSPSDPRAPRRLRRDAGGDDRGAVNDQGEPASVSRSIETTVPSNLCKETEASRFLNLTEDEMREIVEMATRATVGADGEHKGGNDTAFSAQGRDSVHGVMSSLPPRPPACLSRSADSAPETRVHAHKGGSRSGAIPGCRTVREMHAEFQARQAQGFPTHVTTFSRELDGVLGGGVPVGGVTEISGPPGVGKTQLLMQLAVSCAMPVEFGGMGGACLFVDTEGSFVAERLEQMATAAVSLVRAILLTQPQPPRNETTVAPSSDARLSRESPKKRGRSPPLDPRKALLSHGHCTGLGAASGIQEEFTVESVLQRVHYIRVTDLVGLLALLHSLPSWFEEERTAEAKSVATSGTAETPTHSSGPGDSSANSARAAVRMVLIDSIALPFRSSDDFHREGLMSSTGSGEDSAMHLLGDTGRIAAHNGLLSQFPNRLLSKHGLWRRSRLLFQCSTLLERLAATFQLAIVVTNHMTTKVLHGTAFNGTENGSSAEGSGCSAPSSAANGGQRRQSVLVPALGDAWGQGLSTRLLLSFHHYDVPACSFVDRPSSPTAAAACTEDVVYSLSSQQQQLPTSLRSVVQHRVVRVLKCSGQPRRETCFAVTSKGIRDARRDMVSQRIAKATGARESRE

Measured: binding result

B1: D-loop (JYM1395/JYM1396/JYM1745) (structured_DNA)
DNA 1: GCCAGGGACGGGGTGAACCTGCAGGTGGGCGGCTGCTCATCGTAGGTTAGTATCGACCTATTGGTAGAATTCGGCAGCGTCATGCGACGGC
DNA 2: GCCGTCGCATGACGCTGCCGAATTCTACCACGCTACTAGGGTGCCTTGCTAGGACATCTTTGCCCACCTGCAGGTTCACCCCGTCCCTGGC
DNA 3: AAGATGTCCTAGCAAGGCACCCTAGTAGC
binds: all assays above
